Non-standard residues stand in square brackets, D forms with d. No end group written: not given here. Tyr(3-I) = N[C@@H](Cc1ccc(O)c(I)c1)C(=O)O

In assay [1] the target is human insulin receptor (HIR) (human, UniProt P06213 28-1382, limits assumed). The assay can be described thus: 125I-insulin competition, solubilised HIR.
Assay [2] deals with T1, Insulin receptor prepared according to Bass et al., 1996: soluble human insulin receptor-immunoglobulin heavy … (human, UniProt P06213 28-956).
T1 construct: extracellular domain; Eu3+-labelled in TR-FRET; also called IR; sIR-Fc; not shown: immunoglobulin heavy chain constant domains that replace the transmembrane and i
The assay can be described thus: phage ELISA, vs IGF-1R. A general note: An ELISA detects its analyte on a solid surface through an enzyme-linked reagent.

The target in assay [3] is T2, Soluble IGF-1R (R&D Systems, Cat. # 391-GR/CF); recombinant human IGF-1R (human, UniProt P08069 31-935).
T2 construct: extracellular domain; Eu3+-labelled in the TR-FRET assays; also called sIGF-1R; rhIGF-1R
The assay can be described thus: phage ELISA, vs IR.

In assay [4] the target is T2, Soluble IGF-1R (R&D Systems, Cat. # …). The assay can be described thus: phage ELISA vs milk.
The target in assay [5] is T1, Insulin receptor prepared according to …. The assay can be described thus: phage ELISA vs milk.

In general, Kd refers to the free concentration of one partner at which half of the binding sites on the other are occupied at equilibrium, for simple one-to-one binding. Higher therefore signals weaker binding. For the molecule LEEEWAQIECEV[Tyr(3-I)]GRGCSGSLDESFYDWFERQLG (cysteine pairing not given here) [S590], the Kd in assay [1] was found to be 0.058 nM.

LEEEWAQVECEV[Tyr(3-I)]GRGCSGSLDESFYDWFERQLG (cysteine pairing not given here) [S588] displayed a Kd in assay [1] of 0.18 nM. Against the preceding molecule, the Kd is about 3.1-fold higher.

B1: S591 (peptide)
peptide: LEEEWAQIECEVWGRGCSGSLDESF[Tyr(3-I)]DWFERQLG
modifications: not fully specified (bridges); printed as LEEEWAQIECEVWGRGCSGSLDESF-IodoTyr-DWFERQLG; cysteine pairing not given here
B1 came in with a Kd in assay [1] of 0.13 nM.

Take SLEEEWAQIECEVWGRGCPKGFYGWFRRRRG [S584]: the Kd in assay [1] turned out to be 9.3 nM.

With SLEEEWAQIEEVWGRPSESFYDWFERQLG [S570], the Kd in assay [1] was found to be 0.73 nM.

In the case of SLEEEWAQIEEVWGRGSESFYDWFERQLG [S571], the affinity in assay [1], expressed as Kd, was 1.6 nM. Compared with the last molecule, the Kd is about 2.2-fold higher.

On to SLEEEWAQIESEVWGRXESFYDWFERQLG (X17 = βturn (unit not explained)) [S581], for which binding in assay [1] was characterised by a dissociation constant (Kd) of 0.012 nM.

For AVRATRFDEAFYDWFVRQISDGQGNK [H2CA-4-86-GFR], the “IR/IGF-1R Comparison” value in assay [2] stood at 0.2 ratio. In assay [3], the “IGF-1R/IR Comparison” value was 6.4 ratio. Moreover, the “Ratio over Background” value in assay [4] was 7.3 fold; in assay [5], 1.1 fold.

SLEEEWAQIECEVWGRCWHHSFYDWFERQL [S594] gave a Kd in assay [1] of 0.071 nM.

In assay [1], Ac-SLEEEWAQIQEDLYGANHNESFYDWFERQL [S603] displayed a Kd of 0.015 nM.

On to GFREGNFYEWFQAQVT [E4Da-4-H2-IR], for which the “IR/IGF-1R Comparison” value in assay [2] was found to be 0.2 ratio. Also, the “IGF-1R/IR Comparison” value in assay [3] is 4.1 ratio. Besides, the “Ratio over Background” value was 33.9 fold in assay [4] and 8.2 fold in assay [5].

With NYRRQVFNGNFYDWFDRQVFSLVTPG [142CA-3-D8-IGFR], the “IR/IGF-1R Comparison” value in assay [2] amounted to 0.3 ratio. In assay [3], the “IGF-1R/IR Comparison” value was 4 ratio. Also, the “Ratio over Background” value was determined as 7.2 fold in assay [4] and 1.8 fold in assay [5].

On to LEEEWAQIQREVWHS[dP]ASESF[dY]D[dW]FERQL [S595], for which, in assay [1], the Kd came to 0.62 nM.

In assay [1], SLEEEWAQIQHELWPVEKGESFYDWFERQL [S605] displayed a Kd of 0.094 nM.

In the case of QSPVGSSHEDFYDWFFRQVAQSGAHQ [N2CA-3-D6-IGFR], the “IR/IGF-1R Comparison” value in assay [2] worked out at 0.3 ratio. In assay [3], the “IGF-1R/IR Comparison” value is 4 ratio. Further, the “Ratio over Background” value in assay [4] was 9 fold; in assay [5] it was 2.2 fold.

Take SIEEEWAQIKCDVWGRGCPSY [S593]: the affinity in assay [1], expressed as Kd, was 0.022 nM.

In turn, SLEEEWAQIECEVWGRGCPSY [S592] registered a Kd in assay [1] of 1.7 nM. This Kd lies about 77-fold higher than the previous one.

APDPSDFQEIFYDWFVRQVSRMPGGG [H2CA-1-A3-IGFR]: the “IR/IGF-1R Comparison” value in assay [2] stood at 0.2 ratio. Besides, in assay [3], the “IGF-1R/IR Comparison” value is 5.1 ratio. In addition, the “Ratio over Background” value in assay [4] was 3.8 fold; in assay [5], 0.8 fold.

On to SLEEEWAQVECEVYGRGCXESFYDWFERQLG (not fully specified; X19 = βturn (unit not explained)) [S580], for which binding in assay [1] was put at a Kd of 0.012 nM.

In turn, SLEEEWAQIQHELYGPAESESFYD[dW]FERQL [S596] gave a Kd in assay [1] of 0.045 nM. This Kd lies about 3.8-fold higher than the previous one.

In assay [1], SLEEEWAQIEEVWGRSESFYDWFERQLG [S572] came in with a Kd of 4.8 nM. This Kd lies about 110-fold higher than the previous one.

Turning to SLEEEWAQIQEDLYGANHNESFYDWFERQL [S601], the equilibrium dissociation constant (Kd) in assay [1] came to 0.18 nM.

As to VNQSGSIHENFYDWFERQVSHQRGVR [H2CA-4-F1O-IGFR], the “IR/IGF-1R Comparison” value in assay [2] is 0.2 ratio. In addition, the “IGF-1R/IR Comparison” value in assay [3] is 5.9 ratio. In addition, the results for the “Ratio over Background” value in assay [4] and in assay [5] were 5.7 fold and 1 fold, respectively.

As for TLDGGSFEEQFYDWFVRQLSYRTNPD [H2CA-4-G11-IGFR], the “IR/IGF-1R Comparison” value in assay [2] was found to be 0.3 ratio. Besides, the “IGF-1R/IR Comparison” value in assay [3] turned out to be 3.9 ratio. Further, the entries for the “Ratio over Background” value in assay [4] and in assay [5] were 9.5 fold and 2.5 fold, respectively.

On to SLEEEWAQIECEVWGRGCPKGFYGWFRRRG [S582], for which binding in assay [1] was characterised by a dissociation constant (Kd) of 2.5 nM.

For SLEEEWAQIECEVYGRGCPSESFYDWFERQL (not fully specified; N-terminal acetyl) [S597], in assay [1], binding was characterised by a dissociation constant (Kd) of 0.0085 nM.

Regarding SLEEEWAQIESEVWGRSESFYDWFERQLG [S573], in assay [1], binding was put at a Kd of 0.036 nM. This Kd lies about 4.2-fold higher than the previous one.

For SSCDGAGHESFYEWFVRQVSGCRSV (not fully specified (bridges); cysteine pairing not given here) [H2CA-3-C8-IGFR], the “IR/IGF-1R Comparison” value in assay [2] turned out to be 0.2 ratio. Moreover, in assay [3], the “IGF-1R/IR Comparison” value turned out to be 4.8 ratio. Moreover, the figures for the “Ratio over Background” value in assay [4] and in assay [5] were 5.6 fold and 1.2 fold, respectively.

Take QAVQPGFHEEFYDWFVRQVSTGVGGG [H2CA-4-H4-IGFR]: in assay [2], the “IR/IGF-1R Comparison” value is 0.2 ratio. The “IGF-1R/IR Comparison” value in assay [3] was 4.2 ratio. Moreover, the entries for the “Ratio over Background” value in assay [4] and in assay [5] were 4.1 fold and 1 fold, respectively.

On to SSIGGGFHENFYDWFSRQLSQSPPLK [N2CA-4-F7-IGFR], for which the “IR/IGF-1R Comparison” value in assay [2] was 0.2 ratio. Moreover, the “IGF-1R/IR Comparison” value in assay [3] came out at 4.1 ratio. The “Ratio over Background” value in assay [4] came to 3.2 fold; in assay [5], 0.8 fold.

SLEEEWAQIQAEVYGNPNSESFYDWFERQL [S602] registered a Kd in assay [1] of 0.031 nM.

In the case of RAGSSDFHEDFYEWFVRQVSLSLKGK [H2CA-2-B9-IGFR], in assay [2], the “IR/IGF-1R Comparison” value amounted to 0.2 ratio. Moreover, in assay [3], the “IGF-1R/IR Comparison” value worked out at 4.2 ratio. The “Ratio over Background” value worked out at 7 fold in assay [4] and 1.7 fold in assay [5].

The record behind these values is patent publication US20030236190A1 (published 2003).
